From patent US20260347491 (published 2026)
Where two headings read alike, the source gives them in different places. Blank lines part the entries; values can stand above or below the binder they belong to.

Key:
human CD32b (FcgRIIb) = target: T1, human CD32b (FcgRIIb) (human, UniProt P31994); experiment: FACS, CHOS-hCD32b cells
T1 chain: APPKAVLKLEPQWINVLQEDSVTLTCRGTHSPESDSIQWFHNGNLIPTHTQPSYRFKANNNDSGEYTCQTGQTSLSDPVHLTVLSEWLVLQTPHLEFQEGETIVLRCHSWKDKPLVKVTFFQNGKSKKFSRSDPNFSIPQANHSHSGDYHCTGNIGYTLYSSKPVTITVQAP

human HER2 [1] = target: T2, human HER2 (human, UniProt P04626); experiment: FACS
human HER2 [2] = target: T2, human HER2; experiment: FACS; remark: listed apart in the source
human 4-1BB (CD137) = human 4-1BB (CD137) (human, UniProt Q07011); experiment: FACS
Sequence of human 4-1BB (CD137) (Q07011 24-186): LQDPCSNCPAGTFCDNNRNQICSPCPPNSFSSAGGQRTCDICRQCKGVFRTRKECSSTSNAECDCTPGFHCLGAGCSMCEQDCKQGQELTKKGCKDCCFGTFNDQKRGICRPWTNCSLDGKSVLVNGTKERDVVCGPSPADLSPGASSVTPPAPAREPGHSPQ

- EC50 (human CD32b (FcgRIIb)): 1.06 nM
B1: HER2xHER2x4-1BB-1 (full) (antibody)
chain 1: not shown
chain 2: DIQMTQSPSSLSASVGDRVTITCRASQSVQGAVAWYQQKPGKAPKLLIYSASFLYSGVPSRFSGSRSGTDFTLTISSLQPEDFATYYCQQHSTTPPTFGQGTKVEIKRTVAAPSVFIFPPSDEQLKSGRASVVCLLNNFYPREAKVQWKVDNALQSGNSQESVTEQDSKDSTYSLSSRLQLSKADYEKHKVYACEVTHQGLSSPVTKSFNRGEC
chain 3: not shown
chain 4: DIQMTQSPSSLSASVGDRVTITCKASQDVSIGVAWYQQKPGKAPKLLIYSASYRYTGVPSRFSGSGSGTDFTLTISSLQPEDFATYYCQQYYIYPYTFGQGTKVEIKRTVAAPSVFIFPPSDEELKSGTASVQCLLNNFYPREAKVQWKVDNALQSGNSQESVTEQDSKDSTYSLSSELTLSKADYEKHKVYACEVTHQGLSSPVTKSFNRGEC

- EC50 (human HER2 [1]): 2.88 nM
- EC50 (human HER2 [2]): 1.81 nM
B2: HER2xHER2x4-1BB-2 (both HER2 arms) (antibody)
chain 1: not shown
chain 2: not shown
chain 3: EVQLVESGGGLVQPGGSLRLSCAASGFTFTDYTMDWVRQAPGKGLEWVADVNPNSGGSIYNQRFKGRFTLSVDRSKNTLYLQMNSLRAEDTAVYYCARNLGPSFYFDYWGQGTLVTVSS
chain 4: DIQMTQSPSSLSASVGDRVTITCKASQDVSIGVAWYQQKPGKAPKLLIYSASYRYTGVPSRFSGSGSGTDFTLTISSLQPEDFATYYCQQYYIYPYTFGQGTKVEIK

- EC50 (human HER2 [1]): 2.65 nM
- EC50 (human HER2 [2]): 1.82 nM
B3: HER2xHER2x4-1BB-1 (both HER2 arms) (antibody)
chain 1: not shown
chain 2: DIQMTQSPSSLSASVGDRVTITCRASQSVQGAVAWYQQKPGKAPKLLIYSASFLYSGVPSRFSGSRSGTDFTLTISSLQPEDFATYYCQQHSTTPPTFGQGTKVEIK
chain 3: B2 chain 3
chain 4: B2 chain 4

- binding result (human 4-1BB (CD137)): no binding
B4: Pertuzumab (antibody, V domains shown)
VH: B2 chain 3
VL: B2 chain 4
